Data from the Human Domainome abundance scans (Beltran et al. 2025).

B1: Proto-oncogene vav, residues 782 to 842; numbered along this chain, P15498 (parent)
chain: KYFGTAKARYDFCARDRSELSLKEGDIIKILNKKGQQGWWRGEIYGRVGWFPANYVEEDYS

Variants of: B1
Test: abundance fitness (aPCA) (normalised: wild type 0, dead -1); higher = more abundant; growth selection in yeast, the domain comes from the species named
Conditions: Homo sapiens

Abundance fitness, by site and new letter:
E57: M -0.105, P -1.02, Q -0.109, D -0.172, A -0.052, H -0.424, N -0.185, K -0.313, L -0.194, C -0.284, F -0.175, I -0.073
G46: I -0.766, D -0.19, H -0.672, M -0.896, A -0.731, K -0.516, R -0.671, T -0.542, Q -0.291, Y -1.01, P -0.387, S -0.343, F -0.942, C -0.784, N -0.15, V -0.748, W -0.853, L -0.67, E -0.311
N54: G -0.065, L -0.219, T -0.112, W -0.091, E 0.05, R 0.055, C -0.017, I -0.376, F -0.406, P -0.29, H -0.185, Q -0.201, S -0.054, V -0.098, M -0.214, D 0.064, K -0.092, A 0.051
G38: V -0.51, I -0.911, T -0.69, H -0.418, A -0.619, P -0.944, R -0.539, F -0.82, M -0.795, C -0.725, W -0.928, Q -0.186, N -0.309, K -0.248, D -0.265, E -0.438, L -0.55
F51: T -0.799, Q -0.759, C -0.859, S -0.857, W -0.988, M -0.905, I -0.691, G -0.838, P -0.733, E -0.913, A -0.984, L -0.813, R -0.78, D -0.951, N -0.489, V -0.684
P52: R -0.89, T -0.778, V -0.787, W -0.943, F -0.957, C -1.02, A -0.909, D -0.929, M -0.38, L -0.89, Q -0.528, K -0.498, N -0.761, S -0.95, Y -1.01
Y45: E 0.103, M 0.1, Q 0.169, K 0.115, L 0.036, N 0.081, H 0.135, T -0.021, V -0.074, G 0.125, D 0.147, F 0.085, W -0.101, A 0.106, P -0.211, S 0.164
A53: Y -0.341, D -0.641, S -0.082, V -0.301, C -0.078, H -0.011, P -0.226, F -0.472, I -0.314, N -0.444, R -0.151, Q -0.243, W -0.451, G -0.4, E -0.208, K -0.243, M -0.178, L -0.505, T -0.227
G42: E -0.809, T -0.825, F -1.02, Y -0.618, S -0.787, Q -0.963, R -0.398, P -0.916, A -0.523, L -0.788, V -0.837, I -0.832, D -0.385, M -0.748
W39: L -0.268, G -0.978, F -0.354, T -0.385, M -0.028, P -0.807, R -0.241, S -0.599, E -0.795, I -0.408, Q -0.317, A -0.614, N -0.674, H -0.513
R47: F -0.788, W -0.841, L -0.493, M -0.393, Y -0.503, G -0.628, N -0.276
